Test results as given in PMC9482650, “Quantitative fragmentomics allow affinity mapping of interactomes” (Nature Communications, 2022).

T1: USH1C_1, Q9Y6N9
T1 sequence (Q9Y6N9 82-179, limits assumed, looked up): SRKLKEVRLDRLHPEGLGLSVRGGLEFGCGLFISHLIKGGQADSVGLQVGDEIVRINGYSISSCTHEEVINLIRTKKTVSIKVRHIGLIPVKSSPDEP

T2: MPDZ_6, O75970
T2 sequence (O75970 1003-1099, limits assumed, looked up): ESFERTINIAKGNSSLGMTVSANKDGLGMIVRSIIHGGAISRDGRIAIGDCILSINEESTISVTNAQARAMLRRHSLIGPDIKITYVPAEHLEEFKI

T3: PDZD11, Q5EBL8
T3 sequence (Q5EBL8 42-139, limits assumed, looked up): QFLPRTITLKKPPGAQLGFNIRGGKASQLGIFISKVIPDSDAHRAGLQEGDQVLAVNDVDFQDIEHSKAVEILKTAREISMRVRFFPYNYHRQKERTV

T4: PREX2_2, Q70Z35
T4 sequence (Q70Z35 672-764, limits assumed, looked up): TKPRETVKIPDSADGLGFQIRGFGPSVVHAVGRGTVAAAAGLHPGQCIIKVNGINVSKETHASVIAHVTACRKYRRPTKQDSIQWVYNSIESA

T5: MPDZ_11, O75970
T5 sequence (O75970 1720-1817, limits assumed, looked up): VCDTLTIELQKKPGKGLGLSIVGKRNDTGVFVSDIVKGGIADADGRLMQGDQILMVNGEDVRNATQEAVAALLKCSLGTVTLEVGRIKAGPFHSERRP

T6: DVL1, O14640
T6 sequence (O14640 246-333, limits assumed, looked up): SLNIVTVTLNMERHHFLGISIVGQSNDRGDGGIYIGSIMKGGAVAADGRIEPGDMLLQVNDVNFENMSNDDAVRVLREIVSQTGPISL

T7: PDZD2_5, O15018
T7 sequence (O15018 2617-2716, limits assumed, looked up): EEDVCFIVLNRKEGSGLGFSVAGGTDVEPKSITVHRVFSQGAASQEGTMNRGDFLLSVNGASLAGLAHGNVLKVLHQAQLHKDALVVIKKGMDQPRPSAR

T8: NHERF3_2, Q5T2W1
T8 sequence (Q5T2W1 129-225, limits assumed, looked up): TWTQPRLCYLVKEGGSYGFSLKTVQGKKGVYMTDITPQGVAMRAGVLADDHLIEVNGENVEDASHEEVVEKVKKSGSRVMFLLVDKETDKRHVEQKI

T9: PDZD7_1, Q9H5P4
T9 sequence (Q9H5P4 81-178, limits assumed, looked up): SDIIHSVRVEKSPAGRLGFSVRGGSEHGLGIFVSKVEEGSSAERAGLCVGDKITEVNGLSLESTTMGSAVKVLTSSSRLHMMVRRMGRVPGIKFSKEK

T10: SHROOM4, Q9ULL8
T10 sequence (Q9ULL8 5-102, limits assumed, looked up): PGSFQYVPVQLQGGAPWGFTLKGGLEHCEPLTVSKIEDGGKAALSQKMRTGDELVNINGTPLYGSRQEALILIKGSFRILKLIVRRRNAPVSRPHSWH

T11: USH1C_2, Q9Y6N9
T11 sequence (Q9Y6N9 206-303, limits assumed, looked up): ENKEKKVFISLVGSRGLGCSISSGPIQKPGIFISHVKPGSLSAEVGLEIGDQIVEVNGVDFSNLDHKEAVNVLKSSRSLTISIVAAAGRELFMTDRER

T12: MPDZ_13, O75970
T12 sequence (O75970 1982-2070, limits assumed, looked up): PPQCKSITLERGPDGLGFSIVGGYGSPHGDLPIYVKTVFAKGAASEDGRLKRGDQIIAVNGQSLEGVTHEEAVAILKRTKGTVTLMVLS

B1: CBP, Q92793 (peptide)
chain: TGDTLEKFVEGL
B2: RPS6KA1, Q15418 (peptide)
chain: RRVRKLPSTTL

These binders were tested against T1, USH1C_1, Q9Y6N9 (assay: holdup assay). Settings: plain residues with an end cap or a label only (N-terminal biotin on a linker: ttds).
Design: key: below the threshold = too weak to quantify, mostly under pKd 3.1 to 4

Row | Binder | pKd
1 | B1 | below the threshold

What follows are binders tested against T2, MPDZ_6, O75970 (assay: holdup assay). Settings: plain residues with an end cap or a label only (N-terminal biotin on a linker: ttds).
Design: key: below the threshold = too weak to quantify, mostly under pKd 3.1 to 4

Row | Binder | pKd
2 | B2 | below the threshold
3 | B1 | below the threshold

Each binder was assayed against T3, PDZD11, Q5EBL8 (assay: holdup assay). Settings: plain residues with an end cap or a label only (N-terminal biotin on a linker: ttds).
Design: key: below the threshold = too weak to quantify, mostly under pKd 3.1 to 4

Row | Binder | pKd
4 | B2 | below the threshold
5 | B1 | below the threshold

What follows are binders tested against MAGI1_6, Q96QZ7 (assay: holdup assay). Settings: plain residues with an end cap or a label only (N-terminal biotin on a linker: ttds).
Design: key: below the threshold = too weak to quantify, mostly under pKd 3.1 to 4

Sequence of MAGI1_6, Q96QZ7 (Q96QZ7 1146-1238): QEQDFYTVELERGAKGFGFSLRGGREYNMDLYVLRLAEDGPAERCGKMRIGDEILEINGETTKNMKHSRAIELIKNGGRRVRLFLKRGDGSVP

Row | Binder | pKd
6 | B2 | below the threshold
7 | B1 | below the threshold

What follows are binders tested against IL16_2, Q14005 (assay: holdup assay). Settings: plain residues with an end cap or a label only (N-terminal biotin on a linker: ttds).
Design: key: below the threshold = too weak to quantify, mostly under pKd 3.1 to 4

Sequence of IL16_2, Q14005 (Q14005 350-450): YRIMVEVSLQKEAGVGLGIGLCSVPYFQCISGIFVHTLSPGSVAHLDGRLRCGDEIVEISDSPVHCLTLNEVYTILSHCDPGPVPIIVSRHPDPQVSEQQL

Row | Binder | pKd
8 | B2 | below the threshold
9 | B1 | below the threshold

Each binder was assayed against T4, PREX2_2, Q70Z35 (assay: holdup assay). Settings: plain residues with an end cap or a label only (N-terminal biotin on a linker: ttds).
Design: key: below the threshold = too weak to quantify, mostly under pKd 3.1 to 4

Row | Binder | pKd
10 | B1 | below the threshold

Each binder was assayed against Inadl_7, Q8NI35 (assay: holdup assay). Settings: plain residues with an end cap or a label only (N-terminal biotin on a linker: ttds).
Design: key: below the threshold = too weak to quantify, mostly under pKd 3.1 to 4

Sequence of Inadl_7, Q8NI35 (Q8NI35 1219-1332): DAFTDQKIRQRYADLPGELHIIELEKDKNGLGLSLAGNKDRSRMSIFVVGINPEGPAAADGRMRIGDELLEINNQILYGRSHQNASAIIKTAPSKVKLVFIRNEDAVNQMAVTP

Row | Binder | pKd
11 | B2 | below the threshold
12 | B1 | below the threshold

What follows are binders tested against RIMS1, Q86UR5 (assay: holdup assay). Settings: plain residues with an end cap or a label only (N-terminal biotin on a linker: ttds).
Design: key: below the threshold = too weak to quantify, mostly under pKd 3.1 to 4

Sequence of RIMS1, Q86UR5 (Q86UR5 584-692): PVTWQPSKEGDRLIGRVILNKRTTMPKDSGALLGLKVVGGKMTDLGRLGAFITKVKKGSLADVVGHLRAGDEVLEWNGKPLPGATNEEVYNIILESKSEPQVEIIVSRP

Row | Binder | pKd
13 | B2 | below the threshold

Each binder was assayed against T5, MPDZ_11, O75970 (assay: holdup assay). Settings: plain residues with an end cap or a label only (N-terminal biotin on a linker: ttds).
Design: key: below the threshold = too weak to quantify, mostly under pKd 3.1 to 4

Row | Binder | pKd
14 | B2 | 3.58
15 | B1 | below the threshold

Each binder was assayed against MAGI1_5, Q96QZ7 (assay: holdup assay). Settings: plain residues with an end cap or a label only (N-terminal biotin on a linker: ttds).
Design: key: below the threshold = too weak to quantify, mostly under pKd 3.1 to 4

Sequence of MAGI1_5, Q96QZ7 (Q96QZ7 986-1098): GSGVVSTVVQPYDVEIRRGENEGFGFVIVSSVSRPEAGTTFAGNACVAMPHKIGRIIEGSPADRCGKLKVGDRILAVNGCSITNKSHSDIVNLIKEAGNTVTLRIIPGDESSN

Row | Binder | pKd
16 | B2 | below the threshold
17 | B1 | 4.17

Each binder was assayed against T6, DVL1, O14640 (assay: holdup assay). Settings: plain residues with an end cap or a label only (N-terminal biotin on a linker: ttds).
Design: key: below the threshold = too weak to quantify, mostly under pKd 3.1 to 4

Row | Binder | pKd
18 | B2 | below the threshold
19 | B1 | below the threshold

Each binder was assayed against MAGI3_5, Q5TCQ9 (assay: holdup assay). Settings: plain residues with an end cap or a label only (N-terminal biotin on a linker: ttds).
Design: key: below the threshold = too weak to quantify, mostly under pKd 3.1 to 4

Sequence of MAGI3_5, Q5TCQ9 (Q5TCQ9 847-941): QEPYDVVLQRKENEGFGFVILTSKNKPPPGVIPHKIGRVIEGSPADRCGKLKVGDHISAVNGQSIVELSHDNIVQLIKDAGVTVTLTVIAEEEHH

Row | Binder | pKd
20 | B2 | below the threshold
21 | B1 | below the threshold

The binders below were run against T7, PDZD2_5, O15018 (assay: holdup assay). Settings: plain residues with an end cap or a label only (N-terminal biotin on a linker: ttds).
Design: key: below the threshold = too weak to quantify, mostly under pKd 3.1 to 4

Row | Binder | pKd
22 | B2 | below the threshold
23 | B1 | 3.8

The binders below were run against T8, NHERF3_2, Q5T2W1 (assay: holdup assay). Settings: plain residues with an end cap or a label only (N-terminal biotin on a linker: ttds).
Design: key: below the threshold = too weak to quantify, mostly under pKd 3.1 to 4

Row | Binder | pKd
24 | B2 | below the threshold
25 | B1 | below the threshold

These binders were tested against PARD3B_3, Q8TEW8 (assay: holdup assay). Settings: plain residues with an end cap or a label only (N-terminal biotin on a linker: ttds).
Design: key: below the threshold = too weak to quantify, mostly under pKd 3.1 to 4

Sequence of PARD3B_3, Q8TEW8 (Q8TEW8 490-594): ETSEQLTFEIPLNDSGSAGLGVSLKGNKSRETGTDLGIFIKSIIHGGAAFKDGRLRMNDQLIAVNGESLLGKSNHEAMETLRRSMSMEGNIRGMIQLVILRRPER

Row | Binder | pKd
26 | B2 | below the threshold
27 | B1 | below the threshold

The binders below were run against DLG5_2, Q8TDM6 (assay: holdup assay). Settings: plain residues with an end cap or a label only (N-terminal biotin on a linker: ttds).
Design: key: below the threshold = too weak to quantify, mostly under pKd 3.1 to 4

Sequence of DLG5_2, Q8TDM6 (Q8TDM6 714-800): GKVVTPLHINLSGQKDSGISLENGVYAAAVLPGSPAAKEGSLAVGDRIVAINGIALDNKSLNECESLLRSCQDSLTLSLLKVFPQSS

Row | Binder | pKd
28 | B2 | below the threshold
29 | B1 | below the threshold

These binders were tested against T9, PDZD7_1, Q9H5P4 (assay: holdup assay). Settings: plain residues with an end cap or a label only (N-terminal biotin on a linker: ttds).
Design: key: below the threshold = too weak to quantify, mostly under pKd 3.1 to 4

Row | Binder | pKd
30 | B2 | below the threshold
31 | B1 | below the threshold

The binders below were run against MAGI3_4, Q5TCQ9 (assay: holdup assay). Settings: plain residues with an end cap or a label only (N-terminal biotin on a linker: ttds).
Design: key: below the threshold = too weak to quantify, mostly under pKd 3.1 to 4

Sequence of MAGI3_4, Q5TCQ9 (Q5TCQ9 716-815): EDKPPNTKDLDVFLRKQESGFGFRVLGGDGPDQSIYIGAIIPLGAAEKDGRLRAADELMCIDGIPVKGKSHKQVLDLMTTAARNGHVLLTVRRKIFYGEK

Row | Binder | pKd
32 | B2 | 3.59
33 | B1 | below the threshold

Each binder was assayed against PARD3_1, Q8TEW0 (assay: holdup assay). Settings: plain residues with an end cap or a label only (N-terminal biotin on a linker: ttds).
Design: key: below the threshold = too weak to quantify, mostly under pKd 3.1 to 4

Sequence of PARD3_1, Q8TEW0 (Q8TEW0 264-372): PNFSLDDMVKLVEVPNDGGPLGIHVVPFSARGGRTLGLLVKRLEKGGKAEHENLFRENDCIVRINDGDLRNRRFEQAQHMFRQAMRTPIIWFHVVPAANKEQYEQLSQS

Row | Binder | pKd
34 | B2 | below the threshold
35 | B1 | below the threshold

The binders below were run against T10, SHROOM4, Q9ULL8 (assay: holdup assay). Settings: plain residues with an end cap or a label only (N-terminal biotin on a linker: ttds).
Design: key: below the threshold = too weak to quantify, mostly under pKd 3.1 to 4

Row | Binder | pKd
36 | B2 | below the threshold
37 | B1 | 3.86

What follows are binders tested against MAGI3_6, Q5TCQ9 (assay: holdup assay). Settings: plain residues with an end cap or a label only (N-terminal biotin on a linker: ttds).
Design: key: below the threshold = too weak to quantify, mostly under pKd 3.1 to 4

Sequence of MAGI3_6, Q5TCQ9 (Q5TCQ9 1014-1103): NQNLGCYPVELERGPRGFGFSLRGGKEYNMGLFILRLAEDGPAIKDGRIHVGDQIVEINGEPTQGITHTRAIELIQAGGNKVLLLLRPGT

Row | Binder | pKd
38 | B2 | below the threshold
39 | B1 | below the threshold

The binders below were run against TJP1_1, Q07157 (assay: holdup assay). Settings: plain residues with an end cap or a label only (N-terminal biotin on a linker: ttds).
Design: key: below the threshold = too weak to quantify, mostly under pKd 3.1 to 4

Sequence of TJP1_1, Q07157 (Q07157 18-120): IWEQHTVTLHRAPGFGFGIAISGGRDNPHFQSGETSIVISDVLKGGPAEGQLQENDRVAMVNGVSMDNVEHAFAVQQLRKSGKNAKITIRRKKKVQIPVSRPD

Row | Binder | pKd
40 | B2 | below the threshold
41 | B1 | below the threshold

These binders were tested against T11, USH1C_2, Q9Y6N9 (assay: holdup assay). Settings: plain residues with an end cap or a label only (N-terminal biotin on a linker: ttds).
Design: key: below the threshold = too weak to quantify, mostly under pKd 3.1 to 4

Row | Binder | pKd
42 | B2 | below the threshold

These binders were tested against T12, MPDZ_13, O75970 (assay: holdup assay). Settings: plain residues with an end cap or a label only (N-terminal biotin on a linker: ttds).
Design: key: below the threshold = too weak to quantify, mostly under pKd 3.1 to 4

Row | Binder | pKd
43 | B2 | below the threshold
44 | B1 | below the threshold

Each binder was assayed against RGS3, P49796-9 (assay: holdup assay). Settings: plain residues with an end cap or a label only (N-terminal biotin on a linker: ttds).
Design: key: below the threshold = too weak to quantify, mostly under pKd 3.1 to 4

Sequence of RGS3, P49796-9 (P49796 other isoform, or with tags, fused parts or gaps): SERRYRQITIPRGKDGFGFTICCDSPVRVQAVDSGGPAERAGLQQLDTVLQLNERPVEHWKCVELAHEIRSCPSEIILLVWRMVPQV

Row | Binder | pKd
45 | B2 | below the threshold

Each binder was assayed against CNKSR3, Q6P9H4 (assay: holdup assay). Settings: plain residues with an end cap or a label only (N-terminal biotin on a linker: ttds).
Design: key: below the threshold = too weak to quantify, mostly under pKd 3.1 to 4

Sequence of CNKSR3, Q6P9H4 (Q6P9H4 203-303): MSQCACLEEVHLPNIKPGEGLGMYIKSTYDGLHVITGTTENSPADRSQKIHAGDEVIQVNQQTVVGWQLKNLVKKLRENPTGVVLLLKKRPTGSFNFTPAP

Row | Binder | pKd
46 | B2 | below the threshold
47 | B1 | below the threshold
